The chains are these.
T1: Human CD48 on cells (human, UniProt P09326 27-220)
T1 sequence: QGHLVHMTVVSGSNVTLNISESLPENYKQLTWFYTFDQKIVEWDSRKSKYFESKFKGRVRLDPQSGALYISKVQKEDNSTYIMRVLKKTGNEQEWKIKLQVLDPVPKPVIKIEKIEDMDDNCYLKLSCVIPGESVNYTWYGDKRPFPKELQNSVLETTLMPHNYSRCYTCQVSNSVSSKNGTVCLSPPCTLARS

B1: NY920-DAPA-VC-MMAE (antibody, human IgG1, kappa)
heavy: EVQLLESGGGLVQPGGSLRLSCAASGFTFSSFAMSWVRQAPGKGLEWVSAISGFGGSTYYADSVKGRFTISRDNSKNTLYLQMNSLRAEDTAVYYCARQFWEDQPFYFDYWGQGTLVTVSSASTKGPSVFPLAPSSKSTSGGTAALGCLVKDYFPCPVTVSWNSGALTSGVHTFPAVLQSSGLYSLSSVVTVPSSSLGTQTYICNVNHKPSNTKVDKRVEPKSCDKTHTCPPCPAPELLGGPSVFLFPPKPKDTLMISRTPEVTCVVVAVSHEDPEVKFNWYVDGVEVHNAKTKPREEQYNSTYRVVSVLTVLHQDWLNGKEYKCKVSNKALAAPIEKTISKAKGQPREPQVYTLPPSREEMTKNQVSLTCLVKGFYPCDIAVEWESNGQPENNYKTTPPVLDSDGSFFLYSKLTVDKSRWQQGNVFSCSVMHEALHNHYTQKSLSLSPGK
light: not shown
modifications: VC-MMAE (MC-valcit-PAB-MMAE) on the engineered cysteines (E152C, S375C, EU numbering)
B2: NY938-DAPA-VC-MMAE (antibody, human IgG1, kappa)
heavy: QVQLVQSGAEVKKPGASVKVSCKASGYTFTEYTMHWVRQAPGQGLEWMGGINPDTGDTSYNQKFTGRATLTVDKSTSTAYMELSSLRSEDTAVYYCARAQFWTTPRFAYWGQGTLVTVSSASTKGPSVFPLAPSSKSTSGGTAALGCLVKDYFPCPVTVSWNSGALTSGVHTFPAVLQSSGLYSLSSVVTVPSSSLGTQTYICNVNHKPSNTKVDKRVEPKSCDKTHTCPPCPAPELLGGPSVFLFPPKPKDTLMISRTPEVTCVVVAVSHEDPEVKFNWYVDGVEVHNAKTKPREEQYNSTYRVVSVLTVLHQDWLNGKEYKCKVSNKALAAPIEKTISKAKGQPREPQVYTLPPSREEMTKNQVSLTCLVKGFYPCDIAVEWESNGQPENNYKTTPPVLDSDGSFFLYSKLTVDKSRWQQGNVFSCSVMHEALHNHYTQKSLSLSPGK
light: DIQMTQSPSSLSASVGDRVTITCKASQDVGTAVAWYQQKPGKVPKLLIYWASTRHTGVPSRFSGSGSGTDFTLTISSLQPEDVATYYCQQYSTYPITFGQGTKLEIKRTVAAPSVFIFPPSDEQLKSGTASVVCLLNNFYPREAKVQWKVDNALQSGNSQESVTEQDSKDSTYSLSSTLTLSKADYEKHKVYACEVTHQGLSSPVTKSFNRGEC
modifications: VC-MMAE (MC-valcit-PAB-MMAE) on the engineered cysteines (E152C, S375C, EU numbering)
B3: NY938-CysMab-VC-MMAE (antibody, human IgG1, kappa)
heavy: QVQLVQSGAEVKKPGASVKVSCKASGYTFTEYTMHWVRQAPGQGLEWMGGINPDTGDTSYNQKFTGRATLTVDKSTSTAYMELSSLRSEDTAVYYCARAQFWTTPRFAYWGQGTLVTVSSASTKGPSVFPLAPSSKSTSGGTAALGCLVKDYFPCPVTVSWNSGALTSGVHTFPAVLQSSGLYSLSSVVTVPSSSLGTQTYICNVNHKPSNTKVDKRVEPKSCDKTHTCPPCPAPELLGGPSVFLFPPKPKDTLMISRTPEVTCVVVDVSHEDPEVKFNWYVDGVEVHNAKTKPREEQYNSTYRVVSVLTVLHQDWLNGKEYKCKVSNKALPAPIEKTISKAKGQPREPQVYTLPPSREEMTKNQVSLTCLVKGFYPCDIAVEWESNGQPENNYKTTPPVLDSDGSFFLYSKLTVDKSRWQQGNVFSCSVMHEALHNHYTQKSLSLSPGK
light: DIQMTQSPSSLSASVGDRVTITCKASQDVGTAVAWYQQKPGKVPKLLIYWASTRHTGVPSRFSGSGSGTDFTLTISSLQPEDVATYYCQQYSTYPITFGQGTKLEIKRTVAAPSVFIFPPSDEQLKSGTASVVCLLNNFYPREAKVQWKVDNALQSGNSQESVTEQDSKDSTYSLSSTLTLSKADYEKHKVYACEVTHQGLSSPVTKSFNRGEC
modifications: VC-MMAE (MC-valcit-PAB-MMAE) on the engineered cysteines (E152C, S375C, EU numbering)

Consider three molecules from patent publication US20220162308A1 (Novartis, published 2022).

The target in this assay is T1, Human CD48 on cells. Nature of the assay: cell-based or functional assay.
Turning to B1, the “Amax (Span), KMS-20” value amounted to 94; the “Amax (Span), KMS-21-BM” value is 92.9; the “Amax (Span), KMS-27” value was 83.9; the “Amax (Span), NCI-H929” value was determined as 89.7. For the same molecule, the “IC50 (nM), cell proliferation/survival (CellTiter-Glo), KMS-20” value turned out to be 0.077 nM; the “IC50 (nM), cell proliferation/survival (CellTiter-Glo), KMS-21-BM” value is 0.026 nM; the “IC50 (nM), cell proliferation/survival (CellTiter-Glo), KMS-27” value was 0.028 nM; the “IC50 (nM), cell proliferation/survival (CellTiter-Glo), NCI-H929” value is 0.027 nM.
In the case of B2, the “Amax (Span), KMS-20” value is 99.8; the “Amax (Span), KMS-21-BM” value was found to be 105; the “Amax (Span), KMS-27” value was found to be 108; the “Amax (Span), NCI-H929” value was found to be 105. Also, the “IC50 (nM), cell proliferation/survival (CellTiter-Glo), KMS-20” value amounted to 0.037 nM; the “IC50 (nM), cell proliferation/survival (CellTiter-Glo), KMS-21-BM” value was 0.021 nM; the “IC50 (nM), cell proliferation/survival (CellTiter-Glo), KMS-27” value amounted to 0.014 nM; the “IC50 (nM), cell proliferation/survival (CellTiter-Glo), NCI-H929” value was 0.016 nM.
As to B3, the “Amax (Span), KMS-20” value stood at 99.2; the “Amax (Span), KMS-21-BM” value came to 105; the “Amax (Span), KMS-27” value is 98.6; the “Amax (Span), NCI-H929” value was determined as 101. In addition, the “IC50 (nM), cell proliferation/survival (CellTiter-Glo), KMS-20” value came to 0.043 nM; the “IC50 (nM), cell proliferation/survival (CellTiter-Glo), KMS-21-BM” value is 0.021 nM; the “IC50 (nM), cell proliferation/survival (CellTiter-Glo), KMS-27” value was 0.017 nM; the “IC50 (nM), cell proliferation/survival (CellTiter-Glo), NCI-H929” value was found to be 0.018 nM.
